Biological target: Human PSMA (Prostate-Specific Membrane Antigen) (human) (UniProt Q04609)
Assay: ELISA, human PSMA coated on plate, anti-human-IgG-HRP detection

Chain of Human PSMA (Prostate-Specific Membrane Antigen) (human) (Q04609 44-750 limits assumed): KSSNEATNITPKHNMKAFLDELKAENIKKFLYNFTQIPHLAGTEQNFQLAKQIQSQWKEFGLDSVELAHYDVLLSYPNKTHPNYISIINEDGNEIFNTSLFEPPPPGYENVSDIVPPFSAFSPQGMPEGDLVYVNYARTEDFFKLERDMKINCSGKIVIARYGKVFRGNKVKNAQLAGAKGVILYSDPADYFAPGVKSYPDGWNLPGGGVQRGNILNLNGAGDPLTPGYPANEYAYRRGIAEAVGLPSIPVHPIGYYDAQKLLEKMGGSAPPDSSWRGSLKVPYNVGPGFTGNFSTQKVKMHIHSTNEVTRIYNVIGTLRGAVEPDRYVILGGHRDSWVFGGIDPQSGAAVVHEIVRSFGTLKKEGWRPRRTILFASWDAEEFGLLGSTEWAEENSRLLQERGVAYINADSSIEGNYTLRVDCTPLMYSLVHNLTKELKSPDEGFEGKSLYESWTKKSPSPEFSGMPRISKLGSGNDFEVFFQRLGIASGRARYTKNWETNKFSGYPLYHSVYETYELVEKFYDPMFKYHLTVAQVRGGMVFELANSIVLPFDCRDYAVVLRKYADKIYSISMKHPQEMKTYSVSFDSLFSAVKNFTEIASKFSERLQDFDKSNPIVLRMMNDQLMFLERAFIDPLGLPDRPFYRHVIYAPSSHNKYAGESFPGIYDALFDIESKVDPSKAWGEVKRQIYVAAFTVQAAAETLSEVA

- EC50: 271 pM
Substance: J591 (antibody)

From patent US20250186604A1, “ANTI-PSMA ANTIBODY CONJUGATES” (ADC THERAPEUTICS SA, priority 2023, published 2025)
